T1: recombinant human BCMA Fc (human, UniProt Q02223 1-54)
T1 construct: not shown: Fc
T1 sequence: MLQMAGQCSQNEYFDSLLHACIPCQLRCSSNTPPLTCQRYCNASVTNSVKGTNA

T2: BAFF R (R&D, #1162-BR) (human, UniProt Q96RJ3 7-71, limits assumed)
T2 construct: Bought reagent; also called human BAFF R
T2 sequence (looked up): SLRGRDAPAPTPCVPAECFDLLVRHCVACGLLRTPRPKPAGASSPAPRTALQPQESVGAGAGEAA

T3: TACI huFc (R&D, #174TC) (human, UniProt O14836 2-166, limits assumed)
T3 construct: Bought reagent; also called human TACI; not shown: human Fc (huFc)
T3 sequence (looked up): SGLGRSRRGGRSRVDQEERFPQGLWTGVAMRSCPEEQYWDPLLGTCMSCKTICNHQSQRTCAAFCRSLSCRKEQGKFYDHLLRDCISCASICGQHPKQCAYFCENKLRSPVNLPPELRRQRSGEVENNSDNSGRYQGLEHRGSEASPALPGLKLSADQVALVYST

T4: human BCMA, full length, on cells (human, UniProt Q02223 1-184)
T4 construct: the cell line is named in each row's assay; also called K562-BCMA; K562 stably expressing BCMA
T4 sequence: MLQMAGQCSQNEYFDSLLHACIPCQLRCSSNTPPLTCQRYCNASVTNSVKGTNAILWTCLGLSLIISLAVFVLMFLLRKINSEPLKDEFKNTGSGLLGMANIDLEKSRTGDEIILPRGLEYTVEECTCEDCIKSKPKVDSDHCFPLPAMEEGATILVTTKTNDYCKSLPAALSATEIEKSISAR


How the values were obtained:
[1] = target: T1, recombinant human BCMA Fc; experiment: ELISA(scFv), 2 ug/ml coated antigen, 200 nM scFv, HRP anti-Flag tag antibody
Experimental: (§1) 2 ug/ml recombinant human BCMA Fc, mouse BCMA Fc, TACI huFc (R&D, #174TC), BAFF R (R&D, #1162-BR) were coated on immunoplates at 4° C. overnight. The next day, 300 μl/well of 2% MPBS was added for 2 hours, then 200 nM purified antibody (scFv format) was added and incubated at 37° C. for 1 hour, washed three times with PBST (PBS containing 0.05% Tween-20), and washed three times with PBS. And then 1:4000 diluted HRP-labeled anti-Flag tag antibody (sigma, #A8592-1MG) was added, incubated for 1 hour at 37° C., washed three times with PBST (PBS containing 0.05% Tween-20) and washed three times with PBS. 100 ul/well of TMBS substrate was added and developed for 10-15 minutes. The reaction was quenched by adding 50 ul of 2 M sulfuric acid.

BCMA_huFc [2] = target: BCMA_huFc (human); experiment: biacore, supernatant of the clone after reinduction; column headed Dissociation constant (Kd, S^-1)
BCMA_huFc [3] = target: BCMA_huFc (human); experiment: biacore, supernatant of the clone after reinduction
BAFF R (R&D, #1162-BR) = target: T2, BAFF R (R&D, #1162-BR); experiment: ELISA(scFv), 2 ug/ml coated antigen, HRP anti-Flag tag antibody
Experimental: as §1

TACI huFc (R&D, #174TC) = target: T3, TACI huFc (R&D, #174TC); experiment: as above
Experimental: as §1

[4] = target: T4, human BCMA, full length, on cells; experiment: flow cytometry on K562-BCMA cells, scFv_Fc titrated, FITC anti-human Fc
Experimental: K562 and K562 cells (K562-BCMA) stably expressing human BCMA were used and harvested, washed with complete growth medium, and plated into U-bottom microtiter plates at about 1 to 5×10⁵ cells/well. The gradient-diluted scFv_Fc fusion antibody was incubated with K562-BCMA/K562 for 30 minutes on ice, and then incubated with FITC-labeled anti-human Fc as a secondary antibody. After two washing steps, the analysis was performed using a Guava easyCyte™ HT System, and the experimental data was processed using GraphPad Prism to obtain an EC50.

| Binder | binding result [1] | koff (BCMA_huFc [2]) | fold lower Kd (dissociation rate) than parental clone 23F10 (BCMA_huFc [3]) | binding result (BAFF R (R&D, #1162-BR)) | binding result (TACI huFc (R&D, #174TC)) | EC50 [4] |
| --- | --- | --- | --- | --- | --- | --- |
| 25C2 (scFv_Fc) (Fc fusion, also called clone 25C2; not shown: human Fc fragment of vector V152) EVQLLESGGGLVQPGGSLRLSCAASGFTFGGNAMSWVRQAPGKGLEWVSAISGNGGSTFYADSVKGRFTISRDNSKNTLYLQMNSLRAEDTAVYYCAKVRPFWGTFDYWGQGTLVTVSSGGGGSGGGGSGGGGSEIVLTQSPGTLSLSPGERATLSCRASQSVSSSYLAWYQQKPGQAPRLLIYGASSRATGIPDRFSGSGSGTDFTLTISRLEPEDFAVYYCQQYFNPPEYTFGQGTKVEIK |  |  |  |  |  | 2.59 nM |
| 25D2 (scFv_Fc) (Fc fusion, also called clone 25D2; not shown: human Fc fragment of vector V152) EVQLLESGGGLVQPGGSLRLSCAASGFTFRSYAMSWVRQAPGKGLEWVSAISGGGGNTFYADSVKGRFTISRDNSKNTLYLQMNSLRAEDTAVYYCAKVRPFWGTFDYWGQGTLVTVSSGGGGSGGGGSGGGGSEIVLTQSPGTLSLSPGERATLSCRASQSVSSSYLAWYQQKPGQAPRLLIYGASSRATGIPDRFSGSGSGTDFTLTISRLEPEDFAVYYCQQYFNPPEYTFGQGTKVEIK |  |  |  |  |  | 1.89 nM |

Now from value to binder:

| binding result [1] | koff (BCMA_huFc [2]) | fold lower Kd (dissociation rate) than parental clone 23F10 (BCMA_huFc [3]) | binding result (BAFF R (R&D, #1162-BR)) | binding result (TACI huFc (R&D, #174TC)) | EC50 [4] | Binder |
| --- | --- | --- | --- | --- | --- | --- |
| binds | 0.000364 s⁻¹ | 10 times | no binding (tested: 200 nM) | no binding (tested: 200 nM) |  | 25C2 scFv (scFv, scFv format; also called clone 25C2) scFv: EVQLLESGGGLVQPGGSLRLSCAASGFTFGGNAMSWVRQAPGKGLEWVSAISGNGGSTFYADSVKGRFTISRDNSKNTLYLQMNSLRAEDTAVYYCAKVRPFWGTFDYWGQGTLVTVSSGGGGSGGGGSGGGGSEIVLTQSPGTLSLSPGERATLSCRASQSVSSSYLAWYQQKPGQAPRLLIYGASSRATGIPDRFSGSGSGTDFTLTISRLEPEDFAVYYCQQYFNPPEYTFGQGTKVEIKR |
| binds | 0.000374 s⁻¹ | 10 times | no binding (tested: 200 nM) | no binding (tested: 200 nM) |  | 25D2 scFv (scFv, scFv format; also called clone 25D2) scFv: EVQLLESGGGLVQPGGSLRLSCAASGFTFRSYAMSWVRQAPGKGLEWVSAISGGGGNTFYADSVKGRFTISRDNSKNTLYLQMNSLRAEDTAVYYCAKVRPFWGTFDYWGQGTLVTVSSGGGGSGGGGSGGGGSEIVLTQSPGTLSLSPGERATLSCRASQSVSSSYLAWYQQKPGQAPRLLIYGASSRATGIPDRFSGSGSGTDFTLTISRLEPEDFAVYYCQQYFNPPEYTFGQGTKVEIKR |
